Test results from publication PMC9700037, “Inflammasome sensor NLRP1 disease variant M1184V promotes autoproteolysis and DPP9 complex formation by stabilizing the FIIND domain” (The Journal of Biological Chemistry, 2022).
Changes are numbered by the printed parent chain. In names and notes the source's numbering stands.

B1: NLRP1-FIIND (wt) (domain or fragment, human, UniProt Q9C000 1064-1376, looked up)
chain: SQGDLHTKPLGTDDDFWGPTGPVATEVVDKEKNLYRVHFPVAGSYRWPNTGLCFVMREAVTVEIEFCVWDQFLGEINPQHSWMVAGPLLDIKAEPGAVEAVHLPHFVALQGGHVDTSLFQMAHFKEEGMLLEKPARVELHHIVLENPSFSPLGVLLKMIHNALRFIPVTSVVLLYHRVHPEEVTFHLYLIPSDCSIRKAIDDLEMKFQFVRIHKPPPLTPLYMGCRYTVSGSGSGMLEILPKELELCYRSPGEDQLFSEFYVGHLGSGIRLQVKDKKDETLVWEALVKPGDLMPATTLIPPARIAVPSPLDAP
notes: NLRP1 FIIND domain (ZU5-UPA), human, residues 1064-1376 of isoform 1; GST is still on the protein during the GST pull-down of the co-expression experiments and is cut off by TEV before SEC, SEC-MALS and SPR; also called wt FIIND protein; NLRP1 FIIND domain; source: also co-expressed with His6-DPP9 and SUMO-UPA in Sf9; not shown: GST, N-terminal, cleaved
B2: NLRP1-FIIND (M1184V–P1214R) (domain or fragment, human, UniProt Q9C000 1064-1376, looked up)
chain: B1 chain with M121V, P151R
notes: NLRP1 FIIND domain, human, residues 1064-1376 of isoform 1, M1184V and P1214R; they were combined here by mutagenesis; also called M1184V–P1214R double mutation; not shown: GST, N-terminal, cleaved
B3: NLRP1-FIIND (P1214R) (domain or fragment, human, UniProt Q9C000 1064-1376, looked up)
chain: B1 chain with P151R
notes: NLRP1 FIIND domain, human, residues 1064-1376 of isoform 1, patient mutation P1214R; not shown: GST, N-terminal, cleaved
B4: NLRP1-FIIND (M1184V S1213A) (domain or fragment, human, UniProt Q9C000 1064-1376, looked up)
chain: B1 chain with M121V, S150A
notes: NLRP1 FIIND domain, human, residues 1064-1376 of isoform 1, M1184V and S1213A; Uncleaved single chain; GST kept during the GST pull-down of the co-expression, cut off by TEV afterwards; also called cleavage-deficient FIIND mutant (M1184V–S1213A); source: also co-expressed with His6-DPP9 in Sf9; not shown: GST, N-terminal, cleaved
B5: NLRP1-FIIND (S1213A) (domain or fragment, human, UniProt Q9C000 1064-1376, looked up)
chain: B1 chain with S150A
notes: NLRP1 FIIND domain, human, residues 1064-1376 of isoform 1, S1213A (no autoproteolysis); Uncleaved single chain; also called autoproteolysis-deficient NLRP1-FIIND; not shown: GST, N-terminal, cleaved
B6: NLRP1-FIIND (M1184V) (domain or fragment, human, UniProt Q9C000 1064-1376, looked up)
chain: B1 chain with M121V
notes: NLRP1 FIIND domain (ZU5-UPA), human, residues 1064-1376 of isoform 1, natural variant M1184V; Mostly autocleaved between F1212 and S1213, the fragments stay together; GST is still on the protein during the GST pull-down of the co-expression experiments and is cut off by TEV before SEC, SEC-MALS and SPR; also called M1184V variant FIIND; source: also co-expressed with His6-DPP9 with or without …
B7: N-terminal cleavage fragment (ZU5) of NLRP1-FIIND wt (domain or fragment, human, UniProt Q9C000 1064-1212, looked up)
chain: SQGDLHTKPLGTDDDFWGPTGPVATEVVDKEKNLYRVHFPVAGSYRWPNTGLCFVMREAVTVEIEFCVWDQFLGEINPQHSWMVAGPLLDIKAEPGAVEAVHLPHFVALQGGHVDTSLFQMAHFKEEGMLLEKPARVELHHIVLENPSF
notes: NLRP1, human, isoform 1; from the start of the FIIND construct (1064) to the autolytic cleavage site (peptide bond F1212-S1213); source: Sf9 insect cells, purified; arises by autoproteolysis of the FIIND construct; not shown: GST, N-terminal, cleaved
B8: N-terminal cleavage fragment (ZU5) of NLRP1-FIIND M1184V (domain or fragment, human, UniProt Q9C000 1064-1212, looked up)
chain: B7 chain with M121V
notes: NLRP1, human, isoform 1, natural variant M1184V; from the start of the FIIND construct (1064) to the autolytic cleavage site (peptide bond F1212-S1213); source: Sf9 insect cells, purified; arises by autoproteolysis of the FIIND construct; not shown: GST, N-terminal, cleaved
B9: His6-tev-DPP9 (enzyme, UniProt Q86TI2 1-863, looked up)
chain: MATTGTPTADRGDAAATDDPAARFQVQKHSWDGLRSIIHGSRKYSGLIVNKAPHDFQFVQKTDESGPHSHRLYYLGMPYGSRENSLLYSEIPKKVRKEALLLLSWKQMLDHFQATPHHGVYSREEELLRERKRLGVFGITSYDFHSESGLFLFQASNSLFHCRDGGKNGFMVSPMKPLEIKTQCSGPRMDPKICPADPAFFSFINNSDLWVANIETGEERRLTFCHQGLSNVLDDPKSAGVATFVIQEEFDRFTGYWWCPTASWEGSEGLKTLRILYEEVDESEVEVIHVPSPALEERKTDSYRYPRTGSKNPKIALKLAEFQTDSQGKIVSTQEKELVQPFSSLFPKVEYIARAGWTRDGKYAWAMFLDRPQQWLQLVLLPPALFIPSTENEEQRLASARAVPRNVQPYVVYEEVTNVWINVHDIFYPFPQSEGEDELCFLRANECKTGFCHLYKVTAVLKSQGYDWSEPFSPGEDEFKCPIKEEIALTSGEWEVLARHGSKIWVNEETKLVYFQGTKDTPLEHHLYVVSYEAAGEIVRLTTPGFSHSCSMSQNFDMFVSHYSSVSTPPCVHVYKLSGPDDDPLHKQPRFWASMMEAASCPPDYVPPEIFHFHTRSDVRLYGMIYKPHALQPGKKHPTVLFVYGGPQVQLVNNSFKGIKYLRLNTLASLGYAVVVIDGRGSCQRGLRFEGALKNQMGQVEIEDQVEGLQFVAEKYGFIDLSRVAIHGWSYGGFLSLMGLIHKPQVFKVAIAGAPVTVWMAYDTGYTERYMDVPENNQHGYEAGSVALHVEKLPNEPNRLLILHGFLDENVHFFHTNFLVSQLIRAGKPYQLQIYPNERHSIRCPESGEHYEVTLLHFLQEYL
notes: dipeptidyl peptidase 9 (DPP9); Dimer by SEC-MALS (192 kDa); also called His6-DPP9; source: Sf9 insect cells, purified; also co-expressed with GST-tev-FIIND constructs in Sf9 and co-purified

Assays:
[1] = target: T1, Intracellularly biotinylated Avi-His6-tev-DPP9 (UniProt Q86TI2 1-863, biotin (on the Avi tag)); experiment: SPR; biotinylated Avi-His6-tev-DPP9 immobilised on a Series S SA chip (Biacore 8K); monomeric fraction of FIIND proteins (or GST) injected, single-cycle kinetics, 78.125-5000 nM (S1213A from 39.06 nM), 10 mM Hepes pH 7.5, 150 mM NaCl, 0.5 mM TCEP, 0.05% Tween-20; conditions: both partners purified
T1 construct: dipeptidyl peptidase 9 (DPP9); also called biotin-DPP9; immobilized DPP9; source: Sf9 insect cells, intracellularly biotinylated, purified; not shown: Avi, N-terminal, kept; His6, N-terminal, kept

[2] = target: the molecule itself; experiment: SEC; purified FIIND proteins after removal of GST by TEV, Superose 6 increase (10/300) GL, 0.5 ml/min; fractions checked by SDS-PAGE
[3] = target: T1, Intracellularly biotinylated …; experiment: SPR; as a3, with 100 μM Val-boroPro (VbP) present in all dilutions of the FIIND domain; conditions: both partners purified
[4] = target: T2, C-terminal cleavage fragment (UPA) of NLRP1-FIIND (human, UniProt Q9C000 1213-1376); experiment: SEC; purified FIIND proteins after removal of GST by TEV, Superose 6 increase (10/300) GL, 0.5 ml/min; fractions checked by SDS-PAGE; conditions: both partners purified
T2 construct: NLRP1, human, isoform 1; from the autolytic cleavage site (S1213) to the end of the FIIND construct (1376); source: Sf9 insect cells, purified; arises by autoproteolysis of the FIIND construct
T2 sequence (looked up): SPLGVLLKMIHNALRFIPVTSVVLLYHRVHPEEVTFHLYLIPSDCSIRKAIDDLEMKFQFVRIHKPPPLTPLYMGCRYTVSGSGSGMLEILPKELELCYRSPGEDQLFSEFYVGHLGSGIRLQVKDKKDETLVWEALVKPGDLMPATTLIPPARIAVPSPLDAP

Biotin-FLAG-NLRP1 M1184V = target: T3, Biotin-FLAG-NLRP1 M1184V (human, UniProt Q9C000 1-1473, M1184V, biotin); experiment: SPR; Biotin-FLAG-NLRP1 (from HEK293T) or biotin-MBP-NLRP1 (from Sf9, multimer fraction) or biotin-MBP immobilised on a streptavidin chip; DPP9 injected at 78-2500 nM, single-cycle kinetics, 10 mM Hepes pH 7.5, 150 mM NaCl, 0.5 mM TCEP, 0.05% Tween-20; conditions: both partners purified
T3 construct: NLRP1 full length, natural variant M1184V; the construct for purification from HEK293T and its biotinylation are not described in the methods; also called M1184VHEK; source: HEK293T cells, purified
T3 sequence (looked up): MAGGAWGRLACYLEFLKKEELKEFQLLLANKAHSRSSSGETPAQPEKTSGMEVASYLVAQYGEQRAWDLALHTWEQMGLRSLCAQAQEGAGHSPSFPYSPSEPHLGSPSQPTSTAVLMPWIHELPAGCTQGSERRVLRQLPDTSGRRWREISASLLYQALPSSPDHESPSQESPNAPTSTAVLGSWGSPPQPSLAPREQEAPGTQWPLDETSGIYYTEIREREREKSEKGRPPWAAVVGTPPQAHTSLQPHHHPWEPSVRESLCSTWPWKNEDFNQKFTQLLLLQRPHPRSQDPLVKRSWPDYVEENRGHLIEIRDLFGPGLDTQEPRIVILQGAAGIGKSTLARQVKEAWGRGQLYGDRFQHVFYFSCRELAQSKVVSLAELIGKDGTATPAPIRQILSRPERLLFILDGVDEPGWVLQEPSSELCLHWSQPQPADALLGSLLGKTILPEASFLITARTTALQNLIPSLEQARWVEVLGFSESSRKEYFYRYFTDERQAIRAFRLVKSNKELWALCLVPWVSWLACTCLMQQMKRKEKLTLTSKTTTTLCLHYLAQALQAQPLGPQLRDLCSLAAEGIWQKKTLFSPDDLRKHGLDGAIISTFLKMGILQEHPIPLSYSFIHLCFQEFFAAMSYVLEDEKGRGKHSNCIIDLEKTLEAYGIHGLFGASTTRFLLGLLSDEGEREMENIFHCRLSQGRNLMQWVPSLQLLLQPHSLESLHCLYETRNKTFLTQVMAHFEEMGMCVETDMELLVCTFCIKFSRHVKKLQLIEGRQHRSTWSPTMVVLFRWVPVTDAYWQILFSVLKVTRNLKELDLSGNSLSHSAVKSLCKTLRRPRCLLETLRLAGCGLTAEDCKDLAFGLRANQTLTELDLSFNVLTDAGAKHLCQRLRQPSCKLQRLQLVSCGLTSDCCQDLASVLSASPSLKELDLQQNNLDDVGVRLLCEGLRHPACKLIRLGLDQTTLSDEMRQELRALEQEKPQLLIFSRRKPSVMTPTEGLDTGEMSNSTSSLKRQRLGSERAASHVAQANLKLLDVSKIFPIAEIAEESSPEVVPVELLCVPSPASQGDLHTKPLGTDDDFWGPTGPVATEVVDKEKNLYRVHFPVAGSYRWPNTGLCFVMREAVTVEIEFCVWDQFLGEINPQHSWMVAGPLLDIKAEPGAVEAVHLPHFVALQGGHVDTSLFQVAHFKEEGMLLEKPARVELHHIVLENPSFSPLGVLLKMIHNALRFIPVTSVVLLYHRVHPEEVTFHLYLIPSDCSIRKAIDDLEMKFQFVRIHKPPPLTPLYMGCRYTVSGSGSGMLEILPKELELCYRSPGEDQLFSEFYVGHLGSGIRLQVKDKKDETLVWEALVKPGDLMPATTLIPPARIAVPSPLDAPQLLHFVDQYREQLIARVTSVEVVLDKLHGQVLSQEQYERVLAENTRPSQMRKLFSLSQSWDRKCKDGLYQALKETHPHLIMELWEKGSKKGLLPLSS

[5] = target: T4, biotin-MBP-NLRP1 M1184V (Avi-MBP-tev-NLRP1 M1184V) (human, UniProt Q9C000 1-1473, M1184V, biotin (on the Avi tag, BirA co-expressed)); experiment: as above; conditions: both partners purified
T4 construct: NLRP1, human, isoform 1, residues 1-1473, natural variant M1184V; also called M1184VSf9; source: Sf9 insect cells, co-expressed with BirA, purified (multimer or void SEC fraction); not shown: Avi, N-terminal, kept; MBP, N-terminal, kept
T4 sequence (looked up): T3 sequence (looked up)

NLRP1-FIIND (M1184V) = target: B6; experiment: SEC-MALS; co-eluting SEC fractions of FIIND, DPP9 and free UPA co-expressed in Sf9 and co-purified; 0.5-1.0 mg/ml, Superose 6 increase (10/300) GL, buffer A without glycerol; conditions: partners not purified

With B1 the Kd [1] was 1.9 µM and the binding result [2] was “binds”.

B2 was tested, and the Kd [1] was 4.5 µM.

In the case of B3, the Kd [1] is reported as 3.43 µM.

In the case of B4, the Kd [1] is reported as 2.9 µM.

For B5, the Kd [1] was 1.55 µM and the binding result [2] was “binds”.

Work on B6 yielded a Kd [1] of 3.5 µM and a Kd [3] of 3.65 µM.

B7: binds [4].

B8: binds [4].

With B9 the Kd (Biotin-FLAG-NLRP1 M1184V) was 0.144 µM, the Kd [5] was 0.149 µM and the “stoichiometry N” value (NLRP1-FIIND (M1184V)) was 2 DPP9 chains per FIIND.
